B1: Ribonuclease, P00648 (parent)
chain: MMKMEGIALKKRLSWISVCLLVLVSAAGMLFSTAAKTETSSHKAHTEAQVINTFDGVADYLQTYHKLPDNYITKSEAQALGWVASKGNLADVAPGKSIGGDIFSNREGKLPGKSGRTWREADINYTSGFRNSDRILYSSDWLIYKTTDHYQTFTKIR

Variants of: B1
Conditions: Bacillus amyloliquefaciens, pH 6.3, Thermal, DSC, MES 50 mM, structure 1BNI, whole UniProt chain shown; for ddG of mutation (higher = less stable): 54.1 °C

Row | Variant | ddG of mutation (higher = less stable) [kcal/mol] | Tm [°C] | change of melting temperature, mutant - wild type (higher = more stable) [°C]
1 | MMKMEGIALKKRLSWISVCLLVLVSAAGMLFSTAAKTETSSHKAHTEAQVINTFDGVADYLQTYHKLPDNYITKSEAQALGWVASKGNLADVAPGKSIGVDIFSNREGKLPGKSGRTWREADINYTSGFRNSDRILYSSDWLIYKTTDHYQTFTKIR [G100V] | 7.8 | 34.5 | -19.6
2 | MMKMEGIALKKRLSWISVCLLVLVSAAGMLFSTAAKTETSSHKAHTEAQVINTFDGVADYLQTYHKLPDNYITKSEAQALGWVASKGNLADVAPGKSIGADIFSNREGKLPGKSGRTWREADINYTSGFRNSDRILYSSDWLIYKTTDHYQTFTKIR [G100A] | 3.4 | 45.5 | -8.6
3 | MMKMEGIALKKRLSWISVCLLVLVSAAGMLFSTAAKTETSSHKAHTEAQVINTFDGVADYLQTYHKLPDNYITKSEAQALGWVASKGNLADVAPGKSIVGDIFSNREGKLPGKSGRTWREADINYTSGFRNSDRILYSSDWLIYKTTDHYQTFTKIR [G99V] | 8.4 | 33 | -21.1
4 | MMKMEGIALKKRLSWISVCLLVLVSAAGMLFSTAAKTETSSHKAHTEAQVINTFDGVADYLQTYHKLPDNYITKSEAQALGWVASKGNLADVAPGKSIAGDIFSNREGKLPGKSGRTWREADINYTSGFRNSDRILYSSDWLIYKTTDHYQTFTKIR [G99A] | 5.3 |  | 
